From patent US20050153894A1, “p21 peptides” (Cyclacel Limited, priority 1999, published 2005)
Square brackets hold non-standard residues; d marks the D form. Ends that are not written are not given here. Phe(3-F) = N[C@@H](Cc1cccc(F)c1)C(=O)O; Phe(4-F) = N[C@@H](Cc1ccc(F)cc1)C(=O)O; 1Nal = N[C@@H](Cc1cccc2ccccc12)C(=O)O; 2Nal = N[C@@H](Cc1ccc2ccccc2c1)C(=O)O; Phe(ol) = N[C@H](CO)Cc1ccccc1; Nle = CCCC[C@H](N)C(=O)O; Nva = CCC[C@H](N)C(=O)O; dPse = not defined here; Pse = Phenylserine

How the values were obtained:
[1] = target: CDK2/cyclin A (Homo sapiens, UniProt P20248); test: CDK2/cyclin A kinase assay, substrate pRb(773-928); type: biochemical; conditions: pRb substrate, [ATP] = 100 μM
Text: Reactions were stopped on ice, followed by filtration through p81 filterplates (Whatman Polyfiltronics, Kent, UK).

[2] = target: Cyclin A (Homo sapiens, UniProt P20248); test: Cyclin A binding assay, immobilised biotinyl-Ahx-[…]NH2
Cyclin A, sequence (P20248 whole entry): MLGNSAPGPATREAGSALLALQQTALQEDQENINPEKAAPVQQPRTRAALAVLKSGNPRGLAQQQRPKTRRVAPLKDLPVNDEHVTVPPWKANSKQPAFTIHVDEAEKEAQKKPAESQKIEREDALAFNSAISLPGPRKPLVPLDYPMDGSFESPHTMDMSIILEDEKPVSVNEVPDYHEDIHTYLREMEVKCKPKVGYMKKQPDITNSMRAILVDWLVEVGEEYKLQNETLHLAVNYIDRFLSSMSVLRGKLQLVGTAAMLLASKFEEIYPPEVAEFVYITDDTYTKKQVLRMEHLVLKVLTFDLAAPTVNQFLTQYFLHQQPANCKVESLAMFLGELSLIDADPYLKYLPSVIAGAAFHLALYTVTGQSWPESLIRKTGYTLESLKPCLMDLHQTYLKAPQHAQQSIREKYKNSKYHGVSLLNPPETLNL
Method: This was added to each well (100 μL). The plate was incubated for 1 h at room temperature with constant shaking. The plate was washed once quickly with TBS/BSA buffer (200 μL), followed by three more washes with TBS/BSA buffer (200 μL) for 5 min each. Serial dilutions of test peptides were prepared in a new plate (50 μL in each well). Cyclin A was diluted to 5 μg/50 μL with TBS/BSA buffer and this was then added to each well (50 μL). The solutions were mixed thoroughly with a pipette (5-6 times), before being incubated for 30 min at room temperature. This reaction mixture was then transferred to the biotinylated peptide: streptavidin-coated plate and incubated for 1 h at room temperature with constant shaking. The plate was washed once quickly with TBS/BSA buffer (200 μL), followed by three more washes with TBS/BSA buffer (200 μL) for 5 min each. The cyclin A antibody (Santa Cruz polyclonal) solution was diluted 1:200 with TBS/BSA buffer and this was then added to each well of the plate (100 μL. The plate was incubated for 1 h at room temperature with constant shaking. The plate was washed once quickly with TBS/BSA buffer (200 μl), followed by three more washes with TBS/BSA buffer (200 μL) for 5 min each. The anti-rabbit secondary antibody (goat anti-rabbit IgG peroxidase conjugate) was diluted 1:10,000 with TBS/BSA and this was then added to each well of the plate (100 μL). The plate was incubated for 1 h at room temperature with constant shaking. The plate was washed once quickly with TBS/BSA buffer (200 μL), followed by three more washes with TBS/BSA buffer (200 μL) for 5 min each. To each well was added the TMB-ELISA reagent (Pierce 1-Step™ Turbo TMB-ELISA; 100 μL) and the plate incubated for 1 min with constant shaking. The reaction was then quenched by the addition of 2 M aqueous H2SO4 (100 μL, each well). The UV absorbance of the each solution was measured spectrophotometrically at 450 nm. IC50 values were calculated from dose-response curves.

[3] = Ile158 substitutions, relative to H-His-Ala-Lys-Arg-Arg-Leu-Ile-Phe-NH2 (=1)
[4] = Leu157 substitutions, relative to H-His-Ala-Lys-Arg-Arg-Leu-Ile-Phe-NH2 (=1)
[5] = relative to H-His-Ala-Lys-Arg-Arg-Leu-Ile-Phe-NH2 (SEQ ID No. 36) = 1, CDK2/cyclin A kinase assay
[6] = relative to SEQ ID No. 36 = 1, competitive cyclin A binding, immobilised biotinyl-Ahx-His-Ala-Lys-Arg-Arg-Leu-Ile-Phe-NH2
[7] = Lys154 substitutions, relative to H-His-Ala-Lys-Arg-Arg-Leu-Ile-Phe-NH2 (=1)
[8] = Arg155 substitutions, relative to H-His-Ala-Lys-Arg-Arg-Leu-Ile-Phe-NH2 (=1)
[9] = Arg156 substitutions, relative to H-His-Ala-Lys-Arg-Arg-Leu-Ile-Phe-NH2 (=1)
[10] = His152 substitutions, relative to H-His-Ala-Lys-Arg-Arg-Leu-Ile-Phe-NH2 (=1)
[11] = Phe159 substitutions, relative to H-His-Ala-Lys-Arg-Arg-Leu-Ile-Phe-NH2 (=1)
[12] = Ala153 substitutions, relative to H-His-Ala-Lys-Arg-Arg-Leu-Ile-Phe-NH2 (=1)

H-His-Ala-Lys-Arg-Arg-Leu-1Nap-Phe-NH2 (H-HAKRRL[1Nal]F-NH2; SMILES CC(C)C[C@H](NC(=O)[C@H](CCCNC(=N)N)NC(=O)[C@H](CCCNC(=N)N)NC(=O)[C@H](CCCCN)NC(=O)[C@H](C)NC(=O)[C@@H](N)Cc1c[nH]cn1)C(=O)N[C@@H](Cc1cccc2ccccc12)C(=O)N[C@@H](Cc1ccccc1)C(N)=O)
Relative activity Kinase Inhibition [1, 3]: 0.5
Relative activity Cyclin A Binding [2, 3]: 0.5

H-His Ala-Lys-Arg-Arg-Ile-Ile Phe-NH2 (H-HAKRRIIF-NH2)
Relative activity Kinase Inhibition [1, 4]: 1.5
Relative activity Cyclin A Binding [2, 4]: 0.2

113 (H-HSKRRLI[dPse]-OH; reading uncertain) [compound 113]
Relative activity Kinase Inhibition [1, 5]: <0.1
Relative activity Cyclin A Binding [2, 6]: <0.1

110 (H-HAKRRLI[Pse]-OH) [compound 110]
Relative activity Kinase Inhibition [1, 5]: <0.1
Relative activity Cyclin A Binding [2, 6]: 0.2

H-His-Ala-Ala-Arg-Arg-Leu-Ile Phe-NH2 (H-HAARRLIF-NH2)
Relative activity Kinase Inhibition [1, 7]: <0.1
Relative activity Cyclin A Binding [2, 7]: 0.5

H-His-Ala-Lys-Ala-Arg-Leu-Ile Phe-NH2 (H-HAKARLIF-NH2)
Relative activity Kinase Inhibition [1, 8]: <0.1
Relative activity Cyclin A Binding [2, 8]: <0.1

H-His Ala-Lys-Arg-Arg-Leu-Val-Phe-NH2 (H-HAKRRLVF-NH2)
Relative activity Kinase Inhibition [1, 3]: 0.8
Relative activity Cyclin A Binding [2, 3]: 1.5

H-His-Ala-Lys-Arg-Ala-Leu-Ile Phe-NH2 (H-HAKRALIF-NH2)
Relative activity Kinase Inhibition [1, 9]: <0.1
Relative activity Cyclin A Binding [2, 9]: <0.1

H-His-Ala-Lys-Arg-Ser-Leu-Ile Phe-NH2 (H-HAKRSLIF-NH2)
Relative activity Kinase Inhibition [1, 9]: 0.7
Relative activity Cyclin A Binding [2, 9]: 0.2

H-Thi-Ala-Lys-Arg-Arg-Leu-Ile Phe-NH2 (XAKRRLIF; N-terminal Thi, C-terminal amide)
Relative activity Kinase Inhibition [1, 10]: 2
Relative activity Cyclin A Binding [2, 10]: 0.2

H-His-Ala-Lys-Arg-Arg-Leu-Ile-mFPhe-NH2 (H-HAKRRLI[Phe(3-F)]-NH2; SMILES CC[C@H](C)[C@H](NC(=O)[C@H](CC(C)C)NC(=O)[C@H](CCCNC(=N)N)NC(=O)[C@H](CCCNC(=N)N)NC(=O)[C@H](CCCCN)NC(=O)[C@H](C)NC(=O)[C@@H](N)Cc1c[nH]cn1)C(=O)N[C@@H](Cc1cccc(F)c1)C(N)=O)
Relative activity Kinase Inhibition [1, 11]: 0.8
Relative activity Cyclin A Binding [2, 11]: 0.8

H-His-Ala-Lys-Arg-Arg-Nva-Ile Phe-NH2 (H-HAKRR[Nva]IF-NH2; SMILES CCC[C@H](NC(=O)[C@H](CCCNC(=N)N)NC(=O)[C@H](CCCNC(=N)N)NC(=O)[C@H](CCCCN)NC(=O)[C@H](C)NC(=O)[C@@H](N)Cc1c[nH]cn1)C(=O)N[C@H](C(=O)N[C@@H](Cc1ccccc1)C(N)=O)[C@@H](C)CC)
Relative activity Kinase Inhibition [1, 4]: <0.1
Relative activity Cyclin A Binding [2, 4]: <0.1

H-His-Ala-Lys-Gln-Arg-Leu-Ile Phe-NH2 (H-HAKQRLIF-NH2)
Relative activity Kinase Inhibition [1, 8]: <0.1
Relative activity Cyclin A Binding [2, 8]: <0.1

H-His-Ala-Lys-Arg-Arg-Leu-Ile-pFPhe-NH2 (H-HAKRRLI[Phe(4-F)]-NH2; SMILES CC[C@H](C)[C@H](NC(=O)[C@H](CC(C)C)NC(=O)[C@H](CCCNC(=N)N)NC(=O)[C@H](CCCNC(=N)N)NC(=O)[C@H](CCCCN)NC(=O)[C@H](C)NC(=O)[C@@H](N)Cc1c[nH]cn1)C(=O)N[C@@H](Cc1ccc(F)cc1)C(N)=O)
Relative activity Kinase Inhibition [1, 11]: 1
Relative activity Cyclin A Binding [2, 11]: 5

HAKRRLIY-NH2
Relative activity Kinase Inhibition [1, 11]: 0.3
Relative activity Cyclin A Binding [2, 11]: 0.2

H-His-Ala-Lys-Arg-Asn-Leu-Ile Phe-NH2 (H-HAKRNLIF-NH2)
Relative activity Kinase Inhibition [1, 9]: <0.1
Relative activity Cyclin A Binding [2, 9]: <0.1

H-His-Phe-Lys-Arg-Arg-Leu-Ile Phe-NH2 (H-HFKRRLIF-NH2)
Relative activity Kinase Inhibition [1, 12]: 0.5
Relative activity Cyclin A Binding [2, 12]: 0.2

HAKRRLF-NH2 [H-His-Ala-Lys-Arg-Arg-Leu-Phe-NH2]
Relative activity Kinase Inhibition [1, 3]: <0.1
Relative activity Cyclin A Binding [2, 3]: <0.1

HAKRRLFF-NH2
Relative activity Kinase Inhibition [1, 3]: 0.4
Relative activity Cyclin A Binding [2, 3]: 0.4

120 (H-HAKRRLI[Phe(ol)]) [compound 120]
Relative activity Kinase Inhibition [1, 5]: 0.6
Relative activity Cyclin A Binding [2, 6]: 1.0

112 (H-HSKRRLI[Pse]-OH) [compound 112]
Relative activity Kinase Inhibition [1, 5]: <0.1
Relative activity Cyclin A Binding [2, 6]: <0.1

H-His-Ala-Lys-Arg-Arg-Leu-Ile-2Nap-NH2 (H-HAKRRLI[2Nal]-NH2; SMILES CC[C@H](C)[C@H](NC(=O)[C@H](CC(C)C)NC(=O)[C@H](CCCNC(=N)N)NC(=O)[C@H](CCCNC(=N)N)NC(=O)[C@H](CCCCN)NC(=O)[C@H](C)NC(=O)[C@@H](N)Cc1c[nH]cn1)C(=O)N[C@@H](Cc1ccc2ccccc2c1)C(N)=O)
Relative activity Kinase Inhibition [1, 11]: 1.2
Relative activity Cyclin A Binding [2, 11]: 0.7

H-His-Ala-Lys-Arg-Arg-Val-Ile Phe-NH2 (H-HAKRRVIF-NH2)
Relative activity Kinase Inhibition [1, 4]: <0.1
Relative activity Cyclin A Binding [2, 4]: <0.1

H-His-Ala-Lys-Arg-Arg-Nle-Ile Phe-NH2 (H-HAKRR[Nle]IF-NH2; SMILES CCCC[C@H](NC(=O)[C@H](CCCNC(=N)N)NC(=O)[C@H](CCCNC(=N)N)NC(=O)[C@H](CCCCN)NC(=O)[C@H](C)NC(=O)[C@@H](N)Cc1c[nH]cn1)C(=O)N[C@H](C(=O)N[C@@H](Cc1ccccc1)C(N)=O)[C@@H](C)CC)
Relative activity Kinase Inhibition [1, 4]: <0.1
Relative activity Cyclin A Binding [2, 4]: <0.1

HAKRRLIW-NH2
Relative activity Kinase Inhibition [1, 11]: 0.3
Relative activity Cyclin A Binding [2, 11]: 0.1

H-His-Val-Lys-Arg-Arg-Leu-Ile Phe-NH2 (H-HVKRRLIF-NH2)
Relative activity Kinase Inhibition [1, 12]: 2
Relative activity Cyclin A Binding [2, 12]: 1.7

H-His-Ala-Lys-Lys-Arg-Leu-Ile Phe-NH2 (H-HAKKRLIF-NH2)
Relative activity Kinase Inhibition [1, 8]: 0.8
Relative activity Cyclin A Binding [2, 8]: 0.1

H-His-Ile-Lys-Arg-Arg-Leu-Ile Phe-NH2 (H-HIKRRLIF-NH2)
Relative activity Kinase Inhibition [1, 12]: 0.5
Relative activity Cyclin A Binding [2, 12]: 0.2
